Starred links: 1 amine or outer side, 2 acyl side, 3 side chain; linkers in the order of their positions; H or OH if unused. Positions of bridges follow the written chain, without caps; N, C: chain ends. Non-standard residues stand in square brackets, D forms with d. Chains are numbered I, II in the order given. No end group written: not given here. *: point of attachment. TATA = O=C(CC[*:1])N1CN(C(=O)CC[*:2])CN(C(=O)CC[*:3])C1; γGlu = O=C(O)[C@H](CCC(=O)[*:2])N[*:1]; 1Nal = N[C@@H](Cc1cccc2ccccc12)C(=O)O; Palmitoyl = CCCCCCCCCCCCCCCC(=O)*; Hyp = O=C(O)[C@@H]1C[C@@H](O)CN1; hArg = N=C(N)NCCCC[C@H](N)C(=O)O; tBuAla = CC(C)(C)C[C@H](N)C(=O)O; Cysteamide = C(CS[*:3])N[*:1]; dK(PYA) = not defined here; NMeA = CN[C@@H](C)C(=O)O; Nle = CCCC[C@H](N)C(=O)O; Pent4ynoyl = C#CCCC(=O)*; dNMeA = CN[C@H](C)C(=O)O; Mpa = O=C(O)CCS
B1: BCY13583 (peptide)
peptide 1: CP[1Nal][dD]CM[hArg]DWSTP[Hyp]WC
peptide 2: Ac-C[tBuAla]PE[dK(PYA)]PYCFADPY[Nle]CA
peptide 3: Ac-C[tBuAla]PE[dK(PYA)]PYCFADPY[Nle]CK
modifications: linker I:1-I:5-I:15 via TATA; linker II:1-II:8-II:15, III:1-III:8-III:15 via TATA (inferred); reading uncertain; also: Alexa Fluor 488 label, site not given here, linker at chain B 5 at chain C 5 to a chain's N-terminus via N-(acid-PEG3)-N-bis(PEG3-azide)
B2: BCY12588 (peptide)
peptide 1: CP[1Nal]DCM[hArg]DWSTP[Hyp]WC
peptide 2: [Mpa][tBuAla]PE[dK](Pent4ynoyl)PYCFADPY[Nle][Cysteamide]
modifications: linker I:1-I:5-I:15, II:1-II:8-II:15 via TATA; not fully specified (some residues); also: chain 2 present twice on linker, Nectin-4:CD137 1:2, linker at chain B 5 to a chain's N-terminus via N-(acid-PEG3)-N-bis(PEG3-azide)
B3: BCY12590 (peptide)
peptide 1: CP[1Nal]ECM[hArg]EWSTP[Hyp]WC
peptide 2: Ac-C[tBuAla]PE[dK](Pent4ynoyl)PYCFADPY[Nle]CA
modifications: linker I:1-I:5-I:15, II:1-II:8-II:15 via TATA; not fully specified (some residues, bridges); also: chains joined via N-(acid-PEG3)-N-bis(PEG3-azide) linker, triazole at dLys(PYA)
B4: BCY12587 (peptide)
peptide 1: CP[1Nal]DCM[hArg]DWSTP[Hyp]WC
peptide 2: [Mpa][tBuAla]PE[dK](Pent4ynoyl)PYCFADPY[Nle]C
modifications: linker I:1-I:5-I:15, II:1-II:8-II:15 via TATA; not fully specified (some residues); also: chain 2 present twice on linker, Nectin-4:CD137 1:2, linker at chain B 5 to a chain's N-terminus via N-(acid-PEG3)-N-bis(PEG3-azide)
B5: BCY11021 (peptide)
peptide 1: CPXDCMXDWSTPXWC
peptide 2: ACIEEXQYCFADPYXCA
modifications: not fully specified; BCY7744: Ac-A-(SEQ ID NO: 12)-A; TATA; linker at dLys(PYA)4; BCY11016: [PYA]-[B-Ala]-(SEQ ID NO: 1); TATA; linker at N-term PYA
B6: BCY11022 (peptide)
peptide 1: CPXDCMXDWSTPXWC
peptide 2: CXPEXPYCFADPYXCA
modifications: not fully specified; BCY8928: Ac-(SEQ ID NO: 11)-A; TATA; linker at dLys(PYA)4; BCY11016: [PYA]-[B-Ala]-(SEQ ID NO: 1); TATA; linker at N-term PYA
B7: BCY12589 (peptide)
peptide 1: {Palmitoyl-γGlu-γGlu}-CP[1Nal]KCM[hArg]DWSTP[Hyp]WC
peptide 2: Ac-C[tBuAla]PE[dK](Pent4ynoyl)PYCFADPY[Nle]CA
modifications: linker I:1-I:5-I:15, II:1-II:8-II:15 via TATA; not fully specified; also: chain 2 present twice on linker, Nectin-4:CD137 1:2, linker at B5 via N-(acid-PEG3)-N-bis(PEG3-azide), other end not in the chain
B8: BCY10919 (peptide)
peptide 1: CPXDCMXDWSTPXWC
peptide 2: CXPEAPYCFADPYXCX
modifications: not fully specified; BCY11014: Ac-(SEQ ID NO: 6)-Dap(PYA); TATA; linker at C-term Dap(PYA); BCY11015: [PYA]-(SEQ ID NO: 1); TATA; linker at N-term PYA
B9: BCY12761 (peptide)
peptide 1: CP[1Nal]DCM[hArg]DWSTP[Hyp]WC
peptide 2: Ac-C[tBuAla]PE[dK](Pent4ynoyl)PYCFAD[dNMeA]Y[Nle]C
modifications: linker I:1-I:5-I:15, II:1-II:8-II:15 via TATA; not fully specified (some residues, bridges); also: chain 1 N-terminus and chain 2 dLys(PYA)4 joined by N-(acid-PEG3)-N-bis(PEG3-azide) linker
B10: BCY12487 (peptide)
peptide 1: CP[1Nal]DCM[hArg]DWSTP[Hyp]WC
peptide 2: Ac-C[tBuAla]PE[dK](Pent4ynoyl)PYCFAEPY[Nle]C
modifications: linker I:1-I:5-I:15, II:1-II:8-II:15 via TATA; not fully specified (some residues, bridges); also: chain 1 N-terminus and chain 2 dLys(PYA)4 joined by N-(acid-PEG3)-N-bis(PEG3-azide) linker
B11: BCY12760 (peptide)
peptide 1: CP[1Nal]DCM[hArg]DWSTP[Hyp]WC
peptide 2: Ac-C[tBuAla]PE[dK](Pent4ynoyl)PYCFAD[NMeA]Y[Nle]C
modifications: linker I:1-I:5-I:15, II:1-II:8-II:15 via TATA; not fully specified (some residues, bridges); also: chain 1 N-terminus and chain 2 dLys(PYA)4 joined by N-(acid-PEG3)-N-bis(PEG3-azide) linker
B12: BCY12490 (peptide)
peptide 1: CPXKCMXDWSTPXWC
peptide 2: CXPEXPYCFADPYXCA
modifications: BCY8928: Ac-(SEQ ID NO: 11)-A; TATA; linker at dLys(PYA)4; BCY12024: Ac-(SEQ ID NO: 14); TATA; linker at dLys3
B13: BCY11027 (peptide)
peptide 1: CPXDCMXDWSTPXWC
peptide 2: CXPEXPYCFADPYXCA
modifications: not fully specified; BCY8928: Ac-(SEQ ID NO: 11)-A; TATA; linker at dLys(PYA)4; BCY11015: [PYA]-(SEQ ID NO: 1); TATA; linker at N-term PYA
B14: BCY10918 (peptide)
peptide 1: CPXDCMXDWSTPXWC
peptide 2: CXPEXPYCFADPYXCA
modifications: not fully specified; BCY8928: Ac-(SEQ ID NO: 11)-A; TATA; linker at dLys(PYA)4; BCY11015: [PYA]-(SEQ ID NO: 1); TATA; linker at N-term PYA
B15: BCY11780 (peptide)
peptide 1: SDKCSAGWLTMCQXLHLCPSH
peptide 2: CXPEXPYCFADPYXCA
modifications: BCY8928: Ac-(SEQ ID NO: 11)-A; TATA; linker at dLys4; BCY10861: Ac-SDK-(SEQ ID NO: 53)-PSH; TATA; linker at Lys(PYA)9

Target: T1, CD137 on Jurkat reporter cells (Promega kit CS196005) (UniProt Q07011 24-255, limits assumed)
Assay: cell-based or functional assay

T1 sequence (Q07011 24-255 limits assumed): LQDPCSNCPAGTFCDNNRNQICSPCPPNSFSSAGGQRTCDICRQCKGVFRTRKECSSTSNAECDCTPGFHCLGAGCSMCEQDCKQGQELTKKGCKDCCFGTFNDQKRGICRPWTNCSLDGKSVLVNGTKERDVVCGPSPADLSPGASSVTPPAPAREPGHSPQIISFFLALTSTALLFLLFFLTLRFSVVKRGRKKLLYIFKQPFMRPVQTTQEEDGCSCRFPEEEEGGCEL

| Binder | Arithmetic mean EC50 (nM), HT1376 co-culture [nM] | Arithmetic mean EC50 (nM), MDA-MB-468 co-culture [nM] |
| --- | --- | --- |
| B1 | 1.7 | 0.84 |

Target: T1, CD137 on Jurkat reporter cells (Promega …)
Assay: cell-based or functional assay
Remark: another data set of the same source

| Binder | Fold improvement in EC50 over BCY10000 on same plate, NCI-H292 [fold] | Fold improvement in Emax over BCY10000 on same plate, NCI-H292 [fold] |
| --- | --- | --- |
| B2 | 0.72 | 3.2 |
| B3 | 5.5 | 2.73 |
| B4 | 4.2 | 2.9 |
| B5 | 9.63 | 4.42 |

Target: T1, CD137 on Jurkat reporter cells (Promega …)
Assay: cell-based or functional assay
Remark: another data set of the same source

| Binder | EC50 (nM), HT1376 co-culture [nM] | Emax (fold induction over background), HT1376 [fold over background] |
| --- | --- | --- |
| B1 | 1.7 | 63 |
| B6 | 0.2 | 66 |
| B7 | 0.44 | 79 |
| B8 | 0.19 | 62 |
| B9 | 0.37 | 76 |
| B10 | 13 | 12 |
| B11 | 1.8 | 76 |
| B12 | 0.23 | 70 |
| B13 | 0.18 |  |
| B14 | 0.16 |  |

Target: T1, CD137 on Jurkat reporter cells (Promega …)
Assay: cell-based or functional assay
Remark: another data set of the same source

| Binder | EC50 (nM), RKO co-culture [nM] | Fold Induction over background, RKO co-culture [fold] |
| --- | --- | --- |
| B15 | 1.9 | 13 |

Reference: patent publication US20230129258A1 (Bicycle, published 2023)
